Measured values from patent US20240084031A1 (Seagen, published 2024).

What was measured:
[1] = molecular target: T1, human CD70 on CD70 positive cell lines (human, UniProt P32970 1-193); assay: saturation binding of europium-labelled antibody to CD70+ ACHN cells (apparent KD)
T1 construct: whole, on cells
T1 sequence (looked up): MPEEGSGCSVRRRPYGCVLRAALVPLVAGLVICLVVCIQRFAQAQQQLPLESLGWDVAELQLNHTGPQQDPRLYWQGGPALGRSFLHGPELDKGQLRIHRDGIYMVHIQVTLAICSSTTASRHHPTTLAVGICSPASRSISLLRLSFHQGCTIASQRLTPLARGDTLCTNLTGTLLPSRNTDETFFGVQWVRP
From the text: (§1) Humanized 1F6 antibody derivatives HDLA (hVHD and hVLA), HHLA (hVHH and hVLA), and HJLA (hVHJ and hVLA), and c1F6 were transiently expressed in 293 cells, labeled with europium using the Eu-N1 iodoacetamido chelate (Perkin Elmer), and analyzed for saturation binding to a panel of CD70 positive cell lines as described in detail in U.S. Patent Application No. 60/673,070, filed Apr. 19, 2005; and PCT International Publication No. WO 2006/113909.

[2] = molecular target: T2, human FcγRIIIa, 158V (high affinity), full length on stably transfected CHO cells (human, UniProt P08637 17-254); assay: cell-based competition binding on CHO cells expressing full-length FcγRIIIa, 'performed as described previously' (158V line, 100 nM Alexa Fluor 488-labelled h1F6 IgG1); the sheet says only FcγRIIIA
T2 construct: whole, on cells; CHO DG44 line '158V'; also called CD16
T2 sequence (P08637 17-254 F176V): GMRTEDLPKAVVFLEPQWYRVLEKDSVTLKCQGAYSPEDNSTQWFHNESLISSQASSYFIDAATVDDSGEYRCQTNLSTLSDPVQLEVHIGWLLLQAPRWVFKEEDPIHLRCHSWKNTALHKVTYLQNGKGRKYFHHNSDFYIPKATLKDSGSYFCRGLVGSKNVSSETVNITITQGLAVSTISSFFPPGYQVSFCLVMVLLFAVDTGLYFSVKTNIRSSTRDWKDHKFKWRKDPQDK
Method: Binding of variant humanized anti-CD70 (h1F6) antibodies to CHO cells expressing full-length FcγRIIIa was also determined by competition binding. […] Labeled cells were detected using an LSRII FACS analyzer.
(§2) Binding of one of the variants, IgG1 S239C, to CHO cells expressing full-length FcγRIIIa and FcγRI was determined as described above. […] The control, parent antibody h1F6, binds to FcγRIIIa-expressing cells and FcγRI-expressing cells.

[3] = molecular target: T3, mouse CD70 (the corresponding antigen from mice) (mouse, UniProt O55237 45-195, limits assumed); assay: not described (statement in the example on maximum tolerated dose)
T3 construct: Named only as 'the corresponding antigen from mice'
T3 sequence (looked up): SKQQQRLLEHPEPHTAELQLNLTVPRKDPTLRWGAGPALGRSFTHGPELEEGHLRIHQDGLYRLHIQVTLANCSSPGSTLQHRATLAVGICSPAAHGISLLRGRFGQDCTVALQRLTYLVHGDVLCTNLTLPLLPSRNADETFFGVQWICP

[4] = molecular target: T1, human CD70 on CD70 positive cell lines; assay: 786-O cell binding, apparent KD of the IgG
[5] = molecular target: T1, human CD70 on CD70 positive cell lines; assay: saturation binding of europium-labelled antibody to CD70+ Caki-2 cells (apparent KD)
From the text: as §1

[6] = molecular target: T4, human FcγRI, full length on stably transfected CHO cells (human, UniProt P12314 16-374); assay: cell-based competition binding on CHO cells expressing full-length FcγRI, 'performed as described previously' (50 nM Alexa Fluor 488-labelled h1F6 IgG1)
T4 construct: whole, on cells; also called CD64; Fcγ receptor I
T4 sequence (P12314 16-374): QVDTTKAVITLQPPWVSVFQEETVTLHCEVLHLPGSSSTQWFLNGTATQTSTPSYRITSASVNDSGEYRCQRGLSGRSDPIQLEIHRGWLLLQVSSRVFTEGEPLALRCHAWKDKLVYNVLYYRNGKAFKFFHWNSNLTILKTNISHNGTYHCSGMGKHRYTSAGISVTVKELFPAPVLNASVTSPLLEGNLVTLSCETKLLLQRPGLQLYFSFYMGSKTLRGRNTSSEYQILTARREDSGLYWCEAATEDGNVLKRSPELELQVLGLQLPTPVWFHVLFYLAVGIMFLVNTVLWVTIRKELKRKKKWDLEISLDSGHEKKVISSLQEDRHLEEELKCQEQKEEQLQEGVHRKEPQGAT
Method: Binding of humanized anti-CD70 (h1F6) antibody to CHO cells expressing full-length FcγRI was determined by competition binding. […] Labeled cells were detected using an LSRII FACS analyzer.
as §2

[7] = molecular target: T1, human CD70 on CD70 positive cell lines; assay: saturation binding of europium-labelled antibody to CD70+ 786-O cells (apparent KD)
From the text: as §1

[8] = molecular target: T1, human CD70 on CD70 positive cell lines; assay: saturation binding of europium-labelled antibody to CD70+ Caki-1 cells (apparent KD)
From the text: as §1

Kd [1]: 0.68 nM
IC50 (read off the curve) [2]: ~200 nM
Kd [4]: 0.6 nM
Kd [5]: 0.37 nM
IC50 (read off the curve) [6]: ~6 nM
Kd [7]: 0.46 nM
Kd [8]: 1.36 nM
B1: humanized 1F6 antibody derivative HJLA (hVHJ and hVLA), human IgG1 (antibody)
heavy: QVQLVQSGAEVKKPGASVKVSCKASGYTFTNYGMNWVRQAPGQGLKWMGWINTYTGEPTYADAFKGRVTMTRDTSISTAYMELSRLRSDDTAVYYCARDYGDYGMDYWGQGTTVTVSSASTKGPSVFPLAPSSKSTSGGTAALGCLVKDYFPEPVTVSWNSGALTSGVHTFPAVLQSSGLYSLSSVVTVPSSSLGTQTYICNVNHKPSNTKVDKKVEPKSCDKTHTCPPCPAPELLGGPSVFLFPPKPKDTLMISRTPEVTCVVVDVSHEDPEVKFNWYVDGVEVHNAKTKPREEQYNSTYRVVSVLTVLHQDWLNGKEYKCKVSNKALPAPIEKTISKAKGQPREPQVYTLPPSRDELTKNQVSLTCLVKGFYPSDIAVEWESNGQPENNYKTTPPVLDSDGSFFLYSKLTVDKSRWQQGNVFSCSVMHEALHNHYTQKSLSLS
light: DIVMTQSPDSLAVSLGERATINCRASKSVSTSGYSFMHWYQQKPGQPPKLLIYLASNLESGVPDRFSGSGSGTDFTLTISSLQAEDVAVYYCQHSREVPWTFGQGTKVEIKRTVAAPSVFIFPPSDEQLKSGTASVVCLLNNFYPREAKVQWKVDNALQSGNSQESVTEQDSKDSTYSLSSTLTLSKADYEKHKVYACEVTHQGLSSPVTKSFNRGEC
notes: also called h1F6 HJLA; h1F6 IgG1
binding result [3]: no binding
